In the Human Domainome abundance scans (Beltran et al. 2025):

B1: Histone-lysine N-methyltransferase 2A, residues 1148 to 1194; numbered along this chain, Q03164 (parent)
chain: KGRRSRRCGQCPGCQVPEDCGVCTNCLDKPKFGGRNIKKQCCKMRKC
B2: POU domain, class 3, transcription factor 3, residues 320 to 388; numbered along this chain, P20264 (parent)
chain: DDLEQFAKQFKQRRIKLGFTQADVGLALGTLYGNVFSQTTICRFEALQLSFKNMCKLKPLLNKWLEEAD

Variants of: B1
Assay: abundance fitness (aPCA) (normalised: wild type 0, dead -1); higher = more abundant; growth selection in yeast, the domain comes from the species named
Settings: Homo sapiens

Abundance fitness, by site and new letter:
R4: L -0.06; D 0.045; E 0.068; I -0.074; H -0.279; K 0.186; F -0.15; A -0.035; G 0.125
R3: D -0.185; M 0.056; C 0.012; V 0.11; H -0.403; E -0.038; K 0.161; F 0.097; G -0.091; Q 0.023; Y -0.301; A -0.123; W -0.518; N 0.017; I -0.281
G2: K -0.569; Q -0.007; D 0.186; W -0.79; L -0.303; F -0.701; E 0.013; V -0.275; R -0.413; S -0.213; A -0.403
K1: P -0.662; S -0.232; V -0.43; G -0.676; Y -0.299; M -0.337; T -0.659; D -0.341; R -0.285; E 0.47

Variants of: B2
Assay: as above
Settings: Homo sapiens

Abundance fitness of substitutions, site by site:
F51: T 0.061; M -0.231; I -0.51; Y -0.247; V 0.013; W -0.567; H 0.051; D -0.14; S -0.002; N -0.002; E 0.115; P 0.064; C -0.416; Q 0.142; G -0.136; K 0.132; A -0.081; R 0.035
K56: I -0.063; S -0.181; M -0.173; L -0.079; G -0.539; H -0.61; P -0.848; D -0.163; F -0.11; E -0.066; C -0.391; Y -0.753; R 0.017; W -0.548; N -0.44
L47: K -0.111; M 0.113; S -0.29; T -0.602; A -0.342; H 0.083; C 0.021; F -0.293; G -0.038; E -0.662; R 0.039; V -0.039; D -0.661; N 0.599; Y -0.131
D69: L -0.436; E -0.183; T -0.314; S -0.573; P -0.128
C55: W -0.177; E -0.255; I -0.046; V 0.019; F 0.253; K -0.009; Q 0.209; P -0.874; N -0.102; S -0.102; L -0.156; H -0.199; Y -0.269; T -0.186; G -0.354; M -0.032
L49: R -0.385; H -0.697; M -0.078; S -0.649; I -1.01; A -0.441; P -0.65; T -0.846; E -0.573; F -0.865; N -0.594; Y -0.582; K -0.548; C -0.873; W -0.021; V -0.934
A68: M 0.303; G -0.62; R -0.248; S -0.082; E -0.6; C -0.485; Y -0.176; N -0.163; H -0.392; Q -0.587; L -0.705
W64: T -1.15; E -0.792; R -0.582; A -0.737; I -0.715; M -0.83; Q -0.8; H -0.778; G -0.77; S -0.757; P -0.746; L -0.913; V -0.305
A46: K 0.205; G -0.053; R -0.277; S -0.059; T -0.142; I -0.727; H -0.043; W -0.601; V -0.702; P -0.843; Q -0.282; M 0.22
K63: Q -0.066
